Experimental data published in the supplement of paper PMC10065799, “High-throughput profiling of sequence recognition by tyrosine kinases and SH2 domains using bacterial peptide display” (eLife, 2023).

Key:
FGFR3 = FGFR3 (UniProt P22607); assay: phosphorylation enrichment, bacterial display (enrichment ratio); higher = better substrate or ligand; peptides without Tyr show the background
Jak2 = Jak2 (UniProt O60674); assay: as above
Fyn = Fyn (UniProt P06241); assay: as above
EPHB2 = EPHB2 (UniProt P29323); assay: as above
Chain of EPHB2 (P29323 whole entry, looked up): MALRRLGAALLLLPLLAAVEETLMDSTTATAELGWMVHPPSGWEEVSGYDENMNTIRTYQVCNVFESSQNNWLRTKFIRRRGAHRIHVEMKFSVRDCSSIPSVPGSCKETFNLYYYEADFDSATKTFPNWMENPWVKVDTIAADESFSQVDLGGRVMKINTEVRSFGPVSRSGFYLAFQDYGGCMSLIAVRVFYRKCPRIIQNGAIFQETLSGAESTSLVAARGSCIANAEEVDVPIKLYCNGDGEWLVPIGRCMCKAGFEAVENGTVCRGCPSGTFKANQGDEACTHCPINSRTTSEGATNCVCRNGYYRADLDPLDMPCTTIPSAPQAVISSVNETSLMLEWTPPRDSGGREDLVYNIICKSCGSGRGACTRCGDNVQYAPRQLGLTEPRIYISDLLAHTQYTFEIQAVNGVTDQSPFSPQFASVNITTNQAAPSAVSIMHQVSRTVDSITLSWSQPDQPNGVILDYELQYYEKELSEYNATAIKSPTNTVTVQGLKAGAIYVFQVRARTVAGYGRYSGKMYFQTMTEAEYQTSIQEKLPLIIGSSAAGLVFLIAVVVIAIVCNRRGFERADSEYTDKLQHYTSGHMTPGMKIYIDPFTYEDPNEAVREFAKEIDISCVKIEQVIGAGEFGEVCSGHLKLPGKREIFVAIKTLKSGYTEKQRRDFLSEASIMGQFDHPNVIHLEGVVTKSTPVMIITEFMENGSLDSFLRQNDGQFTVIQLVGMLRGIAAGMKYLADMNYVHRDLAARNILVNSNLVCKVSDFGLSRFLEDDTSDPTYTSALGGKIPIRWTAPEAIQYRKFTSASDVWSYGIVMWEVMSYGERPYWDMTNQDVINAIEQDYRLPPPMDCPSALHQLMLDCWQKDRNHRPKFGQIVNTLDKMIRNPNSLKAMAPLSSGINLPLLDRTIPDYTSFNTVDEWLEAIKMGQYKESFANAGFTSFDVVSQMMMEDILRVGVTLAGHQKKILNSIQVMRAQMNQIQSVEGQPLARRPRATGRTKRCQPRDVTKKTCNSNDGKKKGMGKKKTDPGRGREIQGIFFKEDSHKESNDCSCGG

EPHB1 = EPHB1 (UniProt P54762); assay: as above
Chain of EPHB1 (P54762 whole entry, looked up): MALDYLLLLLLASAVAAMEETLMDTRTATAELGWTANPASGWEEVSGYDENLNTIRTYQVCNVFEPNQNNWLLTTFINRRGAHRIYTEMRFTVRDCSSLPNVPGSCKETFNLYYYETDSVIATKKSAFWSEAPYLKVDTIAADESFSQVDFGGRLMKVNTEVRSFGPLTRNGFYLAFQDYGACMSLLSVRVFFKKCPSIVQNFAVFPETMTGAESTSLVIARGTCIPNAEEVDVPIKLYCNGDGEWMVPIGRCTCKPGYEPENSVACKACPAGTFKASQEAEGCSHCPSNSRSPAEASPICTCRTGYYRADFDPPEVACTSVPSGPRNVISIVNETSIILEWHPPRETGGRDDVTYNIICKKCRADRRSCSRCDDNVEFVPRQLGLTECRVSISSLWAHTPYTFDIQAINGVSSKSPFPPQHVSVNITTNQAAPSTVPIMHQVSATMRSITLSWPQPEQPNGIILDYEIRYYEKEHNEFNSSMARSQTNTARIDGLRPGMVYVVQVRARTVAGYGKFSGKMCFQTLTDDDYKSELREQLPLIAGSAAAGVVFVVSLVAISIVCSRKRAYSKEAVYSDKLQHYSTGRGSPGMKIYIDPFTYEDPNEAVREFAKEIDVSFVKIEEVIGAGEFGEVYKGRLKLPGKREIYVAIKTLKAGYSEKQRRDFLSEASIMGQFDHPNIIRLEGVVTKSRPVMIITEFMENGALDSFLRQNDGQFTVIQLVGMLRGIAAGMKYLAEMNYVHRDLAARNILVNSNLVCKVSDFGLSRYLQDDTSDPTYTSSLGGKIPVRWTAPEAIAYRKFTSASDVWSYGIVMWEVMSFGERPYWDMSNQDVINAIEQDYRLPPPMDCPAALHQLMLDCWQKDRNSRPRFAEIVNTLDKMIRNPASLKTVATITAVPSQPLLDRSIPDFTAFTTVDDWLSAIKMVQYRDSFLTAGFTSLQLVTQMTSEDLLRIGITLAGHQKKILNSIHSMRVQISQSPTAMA

MERTK = MERTK (UniProt Q12866); assay: as above
c-Abl (mouse) = assay: as above
FGFR1 = FGFR1 (UniProt P11362); assay: as above
Fer (mouse) = assay: as above
Hck = Hck (UniProt P08631); assay: as above
Chain of Hck (P08631 whole entry, looked up): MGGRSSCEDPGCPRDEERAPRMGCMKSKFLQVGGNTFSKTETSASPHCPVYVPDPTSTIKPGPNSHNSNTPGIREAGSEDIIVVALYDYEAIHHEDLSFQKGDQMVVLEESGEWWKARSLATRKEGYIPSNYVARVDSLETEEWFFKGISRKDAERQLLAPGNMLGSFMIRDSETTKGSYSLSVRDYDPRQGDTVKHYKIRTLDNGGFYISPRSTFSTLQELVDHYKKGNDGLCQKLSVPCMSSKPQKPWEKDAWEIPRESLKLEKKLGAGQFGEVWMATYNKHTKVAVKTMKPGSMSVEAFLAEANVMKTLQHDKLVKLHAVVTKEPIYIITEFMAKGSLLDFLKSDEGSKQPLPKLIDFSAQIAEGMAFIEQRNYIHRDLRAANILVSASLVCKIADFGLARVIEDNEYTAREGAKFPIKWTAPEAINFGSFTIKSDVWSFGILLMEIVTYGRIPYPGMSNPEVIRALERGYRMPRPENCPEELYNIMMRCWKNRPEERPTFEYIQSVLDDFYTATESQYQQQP

Fes = Fes (UniProt P07332); assay: as above
Chain of Fes (P07332 whole entry, looked up): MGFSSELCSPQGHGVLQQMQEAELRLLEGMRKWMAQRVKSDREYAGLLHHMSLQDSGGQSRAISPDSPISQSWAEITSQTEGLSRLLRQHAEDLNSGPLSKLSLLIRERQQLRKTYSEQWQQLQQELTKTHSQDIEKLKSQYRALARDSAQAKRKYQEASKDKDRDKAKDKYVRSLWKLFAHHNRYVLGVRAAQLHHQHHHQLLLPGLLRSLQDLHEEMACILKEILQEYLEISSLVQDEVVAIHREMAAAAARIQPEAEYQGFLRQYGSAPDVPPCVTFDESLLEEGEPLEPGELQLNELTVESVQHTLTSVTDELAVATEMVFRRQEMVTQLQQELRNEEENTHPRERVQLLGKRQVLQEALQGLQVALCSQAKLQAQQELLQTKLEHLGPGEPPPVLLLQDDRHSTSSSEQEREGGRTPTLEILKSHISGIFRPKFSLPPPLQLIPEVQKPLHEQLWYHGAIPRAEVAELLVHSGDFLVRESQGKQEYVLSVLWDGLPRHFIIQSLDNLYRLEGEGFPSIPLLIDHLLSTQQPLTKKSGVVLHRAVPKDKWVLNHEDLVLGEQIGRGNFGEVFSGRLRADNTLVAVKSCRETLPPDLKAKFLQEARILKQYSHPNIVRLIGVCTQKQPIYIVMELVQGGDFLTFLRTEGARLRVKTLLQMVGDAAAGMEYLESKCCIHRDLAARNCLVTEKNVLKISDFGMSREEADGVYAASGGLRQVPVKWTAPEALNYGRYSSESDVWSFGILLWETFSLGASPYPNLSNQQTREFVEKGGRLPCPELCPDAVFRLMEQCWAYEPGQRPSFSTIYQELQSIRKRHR

c-Src = assay: as above
AncSZ = assay: as above
SHP2-C SH2 = assay: SH2 binding enrichment of the phosphorylated peptide, bacterial display (enrichment ratio); higher = better substrate or ligand; peptides without Tyr show the background
Grb2 SH2 = Grb2 SH2 (UniProt P62993); assay: as above
c-Src SH2 = assay: as above
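Throughout, for SH2 binding enrichment of the phosphorylated peptide, bacterial display: peptide library displayed on the E. coli surface as eCPX fusions, selected cells deep-sequenced, score is each peptide's frequency after selection divided by its frequency in the input.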
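Throughout, for phosphorylation enrichment, bacterial display: 11-residue human phosphosite peptides and single-mutation variants displayed on the E. coli surface, counted by deep sequencing, each peptide's frequency after selection divided by its frequency in the unselected input library; frequency after pTyr selection over input frequency; kinase dosed for 20-30% of maximal phosphorylation in three min.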

Chain of Fyn (P06241 whole entry, looked up): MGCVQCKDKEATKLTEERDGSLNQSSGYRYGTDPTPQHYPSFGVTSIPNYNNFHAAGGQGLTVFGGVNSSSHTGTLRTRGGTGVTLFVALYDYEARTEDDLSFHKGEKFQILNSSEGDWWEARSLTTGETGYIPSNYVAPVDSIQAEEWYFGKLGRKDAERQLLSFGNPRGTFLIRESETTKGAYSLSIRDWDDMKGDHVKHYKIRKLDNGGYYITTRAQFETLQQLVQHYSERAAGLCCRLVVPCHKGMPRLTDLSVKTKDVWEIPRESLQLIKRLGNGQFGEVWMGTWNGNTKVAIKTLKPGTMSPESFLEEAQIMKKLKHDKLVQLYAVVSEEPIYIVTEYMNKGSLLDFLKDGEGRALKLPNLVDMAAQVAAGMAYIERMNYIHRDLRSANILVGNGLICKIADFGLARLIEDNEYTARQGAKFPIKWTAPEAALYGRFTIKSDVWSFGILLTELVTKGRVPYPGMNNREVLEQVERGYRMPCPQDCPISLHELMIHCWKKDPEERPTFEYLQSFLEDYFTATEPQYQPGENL
Chain of Jak2 (O60674 whole entry, looked up): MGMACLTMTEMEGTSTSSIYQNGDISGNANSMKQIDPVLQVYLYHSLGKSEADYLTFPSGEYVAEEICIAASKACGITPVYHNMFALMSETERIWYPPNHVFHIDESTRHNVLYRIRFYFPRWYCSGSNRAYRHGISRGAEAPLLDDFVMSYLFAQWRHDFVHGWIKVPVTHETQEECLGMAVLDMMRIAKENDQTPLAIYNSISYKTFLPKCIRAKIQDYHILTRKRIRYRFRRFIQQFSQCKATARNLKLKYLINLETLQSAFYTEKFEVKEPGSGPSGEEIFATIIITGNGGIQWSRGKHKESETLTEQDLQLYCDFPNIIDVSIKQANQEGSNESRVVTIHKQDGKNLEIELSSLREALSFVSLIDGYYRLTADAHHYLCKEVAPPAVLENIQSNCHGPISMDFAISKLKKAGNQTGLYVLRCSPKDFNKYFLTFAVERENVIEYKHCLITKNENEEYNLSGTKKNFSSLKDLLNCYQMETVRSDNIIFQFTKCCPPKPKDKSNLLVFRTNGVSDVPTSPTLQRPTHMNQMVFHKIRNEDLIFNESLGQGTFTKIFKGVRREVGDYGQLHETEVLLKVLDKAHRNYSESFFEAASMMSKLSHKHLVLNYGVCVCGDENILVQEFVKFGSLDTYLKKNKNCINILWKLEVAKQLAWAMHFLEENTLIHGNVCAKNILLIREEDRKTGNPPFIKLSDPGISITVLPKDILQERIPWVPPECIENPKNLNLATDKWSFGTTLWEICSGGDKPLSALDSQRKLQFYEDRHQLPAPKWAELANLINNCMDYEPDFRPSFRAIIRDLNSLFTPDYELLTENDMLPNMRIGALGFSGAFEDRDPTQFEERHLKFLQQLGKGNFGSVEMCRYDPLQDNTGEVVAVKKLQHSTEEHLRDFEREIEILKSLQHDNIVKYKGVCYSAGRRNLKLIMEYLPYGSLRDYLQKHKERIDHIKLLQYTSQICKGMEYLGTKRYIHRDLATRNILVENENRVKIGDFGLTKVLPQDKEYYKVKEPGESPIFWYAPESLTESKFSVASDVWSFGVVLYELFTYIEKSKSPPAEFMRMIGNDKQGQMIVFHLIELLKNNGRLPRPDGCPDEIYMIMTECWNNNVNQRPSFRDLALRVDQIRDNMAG

SH2 binding enrichment (SHP2-C SH2)	SH2 binding enrichment (Grb2 SH2)	SH2 binding enrichment (c-Src SH2)	Sequence	phosphorylation enrichment (FGFR3)	phosphorylation enrichment (Jak2)	phosphorylation enrichment (Fyn)	phosphorylation enrichment (EPHB2)	phosphorylation enrichment (EPHB1)	phosphorylation enrichment (MERTK)	phosphorylation enrichment (c-Abl (mouse))	phosphorylation enrichment (FGFR1)	phosphorylation enrichment (Fer (mouse))	phosphorylation enrichment (Hck)	phosphorylation enrichment (Fes)	phosphorylation enrichment (c-Src)	phosphorylation enrichment (AncSZ)
0.719	0.71	0.967	SLFNGYVFSGV [NEIL3_Y71_YF]	0.584	0.908	0.451	0.567	0.514	0.472	0.624	0.562	0.494	0.555	0.77	0.418	0.779
2.5	1.03	1.91	SLFNGYVYSGV [NEIL3_Y71]	0.634	1.58	5.75	0.66	0.555	0.929	0.695	0.624	0.864	4.49	0.978	4.91	1.04
0.776	0.942	0.601	SLLPDYEDEEE [ZNF830_Y159]	0.782	1.01	0.646	0.829	0.744	0.631	0.647	0.583	0.64	0.673	1.28	0.556	1.47
0.556	0.806	0.419	SNFRAYATEPQ [TNNI3_Y29_H34Q_YF]	0.494	0.565	0.427	0.408	0.468	0.477	0.585	0.355	0.442	0.518	0.869	0.346	0.577
0.662	0.701	0.447	SQSKGYRPKLY [SIPA1L3_Y1376_G1371S]	0.33	0.496	0.344	0.337	0.336	0.51	0.519	0.424	0.364	0.361	0.651	0.408	0.719
0.657	0.818	0.559	SRGSSYNSIPK [FLNC_Y2625_S2626N]	0.383	0.587	0.297	0.356	0.417	0.525	0.524	0.33	0.328	0.286	0.642	0.486	0.53
0.565	1.19	0.476	SSMIDYKPLEK [MYOC_Y479_N480K]	0.425	0.495	0.434	0.421	0.357	0.441	0.459	0.377	0.322	0.413	0.538	0.384	0.562
0.611	0.702	0.425	SSNLYYRCLTA [CNGA3_Y169_W171C]	1.13	1.5	0.493	0.766	0.563	1.89	0.896	0.949	0.571	0.807	1.12	0.63	1.05
0.876	0.813	3.04	SSQHRYSTPHT [RAF1_Y232_A237T]	0.369	0.487	0.348	0.37	0.343	0.405	0.448	0.352	0.425	0.312	0.477	0.423	0.45
0.573	0.956	0.592	SSREGYVRHHN [FAM83B_Y433_S435R]	0.473	0.672	0.377	0.445	0.309	0.409	0.451	0.416	0.501	0.387	0.435	0.38	0.482
0.639	0.861	0.506	SSSGAYGGGYG [KRT19_Y61]	0.367	0.346	0.359	0.403	0.365	0.34	0.386	0.353	0.364	0.434	0.526	0.377	0.454
0.454	0.862	0.567	SSTASYFEAPG [RFX2_Y108]	3.47	0.968	0.442	0.487	0.445	0.449	0.531	4.92	0.378	0.433	0.802	0.432	0.789
0.94	1.07	1.29	SSVKPYRVYCD [FGB_Y266]	0.516	0.657	0.464	0.564	0.449	0.401	0.52	0.463	0.42	0.442	0.791	0.519	0.659
0.578	0.827	0.418	STSKTYVISQT [RBBP6_Y87_R91Q]	0.429	0.559	0.446	0.418	0.391	0.44	0.615	0.431	0.328	0.372	0.694	0.466	0.591
0.902	0.788	0.64	STTIHYNFMCN [TP53_Y234_C229S_YF]	0.797	0.998	0.493	0.605	0.628	0.5	0.753	0.523	0.494	0.504	1.19	0.463	1
0.627	0.773	0.444	SVMAEYGLFRA [VSX2_Y219_G223R_YF]	0.538	0.505	6.8	0.513	0.481	0.51	0.589	0.514	0.513	5.72	0.661	6.04	0.77
0.776	0.838	0.511	SVMAEYGLYAA [VSX2_Y219_G223A]	0.632	0.579	7.34	8.04	3.29	2.4	0.799	0.654	5.85	7.6	0.798	5.12	0.997
0.544	0.722	0.381	SVNCTYSPALN [TP53_Y126_T123N]	0.725	0.77	0.735	0.613	0.654	0.478	0.622	0.484	0.521	0.851	1.01	0.849	0.957
0.617	0.865	0.448	SVTCTYPPALN [TP53_Y126_S127P]	0.578	1.07	0.448	0.578	0.471	0.477	0.97	0.502	0.473	0.557	0.873	0.485	0.886
0.781	0.956	0.503	SVTCTYSLALN [TP53_Y126_P128L]	0.802	1.13	0.78	0.6	0.688	0.614	0.951	0.653	0.558	0.628	1.38	1.65	1.21
0.492	0.567	0.319	SVTWTYSPALN [TP53_Y126_C124W]	0.862	0.986	0.387	0.786	0.569	0.289	0.698	0.461	0.532	0.467	1.11	0.347	1.31
0.827	0.684	0.855	SVVVPYDPPEV [TP53_Y220_E221D]	0.711	1.01	0.48	0.51	0.543	0.373	0.629	0.56	0.465	0.488	1.08	0.499	1.02
1.55	1.13	0.774	SWSTSYSGFRF [NKAPL_Y91_YF]	0.719	0.821	0.739	0.663	0.588	0.535	0.728	0.637	1.61	0.858	1.38	1.69	1.17
1.88	1.17	1.03	SWSTSYSGYRY [NKAPL_Y91]	0.656	0.741	0.706	0.619	0.596	0.461	0.652	0.707	0.591	0.701	0.925	1.7	0.825
0.627	1.13	0.931	SYCYRYCCAAR [SUMF1_Y344_R345C]	0.769	0.679	0.43	0.553	0.392	0.437	0.622	0.47	0.457	0.497	0.976	0.369	0.968
1.43	1.42	1.5	SYCYRYRCAAQ [SUMF1_Y344_R349Q]	0.464	0.599	0.419	0.424	0.382	0.515	0.471	0.499	0.346	0.5	0.599	0.399	0.768
0.661	0.91	1.02	SYTDPYAQPPL [KMT2D_Y2378]	2.16	0.681	0.496	0.482	0.591	0.52	0.666	3.08	0.489	0.473	0.902	0.587	0.927
1.09	0.98	0.593	TAALWYIFLHT [ENG_Y612_S615L_YF]	1.2	1.48	0.555	0.939	0.832	0.555	1.24	0.845	0.577	0.689	1.86	0.508	1.32

Sequence	SH2 binding enrichment (SHP2-C SH2)	SH2 binding enrichment (Grb2 SH2)	SH2 binding enrichment (c-Src SH2)	phosphorylation enrichment (FGFR3)	phosphorylation enrichment (Jak2)	phosphorylation enrichment (Fyn)	phosphorylation enrichment (EPHB2)	phosphorylation enrichment (EPHB1)	phosphorylation enrichment (MERTK)	phosphorylation enrichment (c-Abl (mouse))	phosphorylation enrichment (FGFR1)	phosphorylation enrichment (Fer (mouse))	phosphorylation enrichment (Hck)	phosphorylation enrichment (Fes)	phosphorylation enrichment (c-Src)	phosphorylation enrichment (AncSZ)
STEPQYQPGEN [SRC_Y530]	0.712	0.814	0.558	0.476	0.681	0.383	0.566	0.516	0.356	0.564	0.478	0.392	0.499	0.817	0.38	0.825
